Experimental findings from article PMC9731866 (The Journal of Biological Chemistry, 2022) are described below.

The data set deals with the molecule itself. Put plainly: SEC-MALS; low concentration (1 mg/ml); Superdex 200 10/300 GL, 24 °C, 10 mM Hepes pH 7.4, 200 mM NaCl, 5 mM β-ME; N counts the units (heterodimers or heterotetramers) in the oligomer. Background: Size exclusion chromatography separates by hydrodynamic size, large species first.

B1: αMγ heterodimer of HsIDH3 (α-Q139A with γ) (complex, human)
chain 1: TGGVQTVTLIPGDGIGPEISAAVMKIFDAAKAPIQWEERNVTAIQGPGGKWMIPSEAKESMDKNKMGLKGPLKTPIAAGHPSMNLLLRKTFDLYANVRPCVSIEGYKTPYTDVNIVTIRENTEGEYSGIEHVIVDGVVASIKLITEGASKRIAEFAFEYARNNHRSNVTAVHKANIMRMSDGLFLQKCREVAESCKDIKFNEMYLDTVCLNMVQDPSQFDVLVMPNLYGDILSDLCAGLIGGLGVTPSGNIGANGVAIFESVHGTAPDIAGKDMANPTALLLSAVMMLRHMGLFDHAARIEAACFATIKDGKSLTKDLGGNAKCSDFTEEICRRVKDLD
chain 2: FSEQTIPPSAKYGGRHTVTMIPGDGIGPELMLHVKSVFRHACVPVDFEEVHVSSNADEEDIRNAIMAIRRNRVALKGNIETNHNLPPSHKSRNNILRTSLDLYANVIHCKSLPGVVTRHKDIDILIVRENTEGEYSSLEHESVAGVVESLKIITKAKSLRIAEYAFKLAQESGRKKVTAVHKANIMKLGDGLFLQCCREVAARYPQITFENMIVDNTTMQLVSRPQQFDVMVMPNLYGNIVNNVCAGLVGGPGLVAGANYGHVYAVFETATRNTGKSIANKNIANPTATLLASCMMLDHLKLHSYATSIRKAVLASMDNENMHTPDIGGQGTTSEAIQDVIRHIRVINGRAVEA
notes: α subunit of human IDH3 (HsIDH3), Q139A; γ subunit of human IDH3 (HsIDH3); One α and one γ chain; the heterodimer is the unit that associates into the (αMγ)2 heterotetramer; also called α_(Q139A)γ; mutant αγ heterodimer; source: E. coli BL21 (DE3) Codon-Plus, co-expressed from pQlinkN-α-γ-tev-His6, purified (Ni-NTA, TEV cleavage, gel filtration); not shown: His6, C-terminal, cleaved
For the protein B1, the “stoichiometry N” value amounted to 2.

The stoichiometry N is a count of units in the complex or per binding partner.
